# Experimental data published in article PMC2844805.
# How the values were obtained:
# [1] = tested on: O=P(O)(O)OC[C@@H](O)[C@H]1O[C@@H](OP(=O)(O)O)[C@@H](O)[C@@H](O)[C@@H]1O; test: steady-state kinetics; type: biochemical, Bordetella bronchiseptica; settings: Mg2+; pH 7.5; 25.0 °C
# [2] = tested on: O=P(O)(O)OC[C@@H](O)[C@H]1O[C@H](OP(=O)(O)O)[C@@H](O)[C@@H](O)[C@@H]1O; test: steady-state kinetics; type: biochemical, Bordetella bronchiseptica; settings: Mg2+; pH 7.5; 25.0 °C
# purified protein [3] = substrate: O=P(O)(O)OC[C@@H](O)[C@H]1O[C@H](OP(=O)(O)O)[C@@H](O)[C@@H](O)[C@@H]1O; test: purified protein; type: biochemical, Escherichia coli; settings: Mg2+ C([…])phosphate selectively removed; pH 7.5; 25.0 °C
# purified protein [4] = substrate: O=P(O)(O)OC[C@@H](O)[C@H]1O[C@@H](OP(=O)(O)O)[C@@H](O)[C@@H](O)[C@@H]1O; test: purified protein; type: biochemical, Escherichia coli; settings: Mg2+ C([…])phosphate selectively removed; pH 7.5; 25.0 °C
# steady-state kinetics [5] = substrate: O=P(O)(O)OC[C@@H](O)[C@H]1O[C@H](OP(=O)(O)O)[C@@H](O)[C@@H](O)[C@@H]1O; test: steady-state kinetics; type: biochemical, Mesorhizobium japonicum; settings: Mg2+; pH 7.5; 25.0 °C
# steady-state kinetics [6] = substrate: O=P(O)(O)OC[C@@H](O)[C@H]1O[C@@H](OP(=O)(O)O)[C@@H](O)[C@@H](O)[C@@H]1O; test: steady-state kinetics; type: biochemical, Mesorhizobium japonicum; settings: Mg2+; pH 7.5; 25.0 °C
# steady-state kinetics [7] = substrate: O=P(O)(O)OC[C@@H](O)[C@H]1O[C@H](OP(=O)(O)O)[C@@H](O)[C@@H](O)[C@@H]1O; test: steady-state kinetics; type: biochemical, Bacteroides thetaiotaomicron; settings: Mg2+; pH 7.5; 25.0 °C
# steady-state kinetics [8] = substrate: O=P(O)(O)OC[C@@H](O)[C@H]1O[C@@H](OP(=O)(O)O)[C@@H](O)[C@@H](O)[C@@H]1O; test: steady-state kinetics; type: biochemical, Bacteroides thetaiotaomicron; settings: Mg2+; pH 7.5; 25.0 °C
molecule,measurement,setting,value
"D-glycero-D-manno-heptose-1β,7-bisphosphate phosphatase (GmhB) (Bordetella bronchiseptica RB50)",Km,[1],6.9 ± 0.5 µM
same,kcat,[1],22 ± 0.5 s⁻¹
same,kcat/Km,[1],3.2e+06 M⁻¹ s⁻¹
same,Km,[2],280 ± 30 µM
same,kcat,[2],5.9 ± 0.2 s⁻¹
same,kcat/Km,[2],21000 M⁻¹ s⁻¹
"D-glycero-D-manno-heptose-1,7-bisphosphate phosphatase (GmhB) (Escherichia coli K-12) (protein) MAKSVPAIFLDRDGTINVDHGYVHEIDNFEFIDGVIDAMRELKKMGFALVVVTNQSGIARGKFTEAQFETLTEWMDWSLADRDVDLDGIYYCPHHPQGSVEEFRQVCDCRKPHPGMLLSARDYLHIDMAASYMVGDKLEDMQAAVAANVGTKVLVRTGKPITPEAENAADWVLNSLADLPQAIKKQQKPAQ",Km,purified protein [3],67 ± 1 µM
same,kcat,purified protein [3],4.6 ± 0.1 s⁻¹
same,kcat/Km,purified protein [3],70000 M⁻¹ s⁻¹
same,Km,purified protein [4],5.0 ± 0.1 µM
same,kcat,purified protein [4],35.7 ± 0.2 s⁻¹
same,kcat/Km,purified protein [4],7e+06 M⁻¹ s⁻¹
"D-glycero-D-manno-heptose-1,7-bisphosphate phosphatase (GmhB) (Mesorhizobium japonicum MAFF 303099) (protein) MADKTGTPHPLTEPGVWIERIGGRVFPPHLPALFLDRDGTINVDTDYPSDPAEIVLRPQMLPAIATANRAGIPVVVVTNQSGIARGYFGWSAFAAVNGRVLELLREEGVFVDMVLACAYHEAGVGPLAIPDHPMRKPNPGMLVEAGKRLALDLQRSLIVGDKLADMQAGKRAGLAQGWLVDGEAAVQPGFAIRPLRDSSELGDLLAAIETLGRDNRS",Km,steady-state kinetics [5],58 ± 1 µM
same,kcat,steady-state kinetics [5],4.4 ± 0.1 s⁻¹
same,kcat/Km,steady-state kinetics [5],76000 M⁻¹ s⁻¹
same,Km,steady-state kinetics [6],13 ± 0.2 µM
same,kcat,steady-state kinetics [6],18 ± 0.2 s⁻¹
same,kcat/Km,steady-state kinetics [6],1.4e+06 M⁻¹ s⁻¹
"D-glycero-D-manno-heptose-1,7-bisphosphate phosphatase (GmhB) (Bacteroides thetaiotaomicron VPI-5482) (protein) MRLQDIDVTGFETLLLDRDGVVNRLRPDDYVKKWEEFEFLPGVLEILKAWNTHFKYIFIVTNQRGVGKEIMSEEDLKHIHERMISEVKNYGGRIDRIYYCTALTDSDINRKPGIGMFLQILRDYPDIDKAKCLMIGDSDSDIKFAKNCGIVGIKVI",Km,steady-state kinetics [7],33 ± 1 µM
same,kcat,steady-state kinetics [7],29 ± 1 s⁻¹
same,kcat/Km,steady-state kinetics [7],880000 M⁻¹ s⁻¹
same,Km,steady-state kinetics [8],86 ± 1 µM
same,kcat,steady-state kinetics [8],13 ± 1 s⁻¹
same,kcat/Km,steady-state kinetics [8],150000 M⁻¹ s⁻¹
